Source: article doi:10.1101/2020.12.01.406983 (bioRxiv, 2020)

Target: canine parvovirus (CPV) capsid (Canine parvovirus type 2, strain CPV-d …, UniProt P17455)
Test: cryo-EM structure

Sequence of canine parvovirus (CPV) capsid (P17455 whole entry, looked up): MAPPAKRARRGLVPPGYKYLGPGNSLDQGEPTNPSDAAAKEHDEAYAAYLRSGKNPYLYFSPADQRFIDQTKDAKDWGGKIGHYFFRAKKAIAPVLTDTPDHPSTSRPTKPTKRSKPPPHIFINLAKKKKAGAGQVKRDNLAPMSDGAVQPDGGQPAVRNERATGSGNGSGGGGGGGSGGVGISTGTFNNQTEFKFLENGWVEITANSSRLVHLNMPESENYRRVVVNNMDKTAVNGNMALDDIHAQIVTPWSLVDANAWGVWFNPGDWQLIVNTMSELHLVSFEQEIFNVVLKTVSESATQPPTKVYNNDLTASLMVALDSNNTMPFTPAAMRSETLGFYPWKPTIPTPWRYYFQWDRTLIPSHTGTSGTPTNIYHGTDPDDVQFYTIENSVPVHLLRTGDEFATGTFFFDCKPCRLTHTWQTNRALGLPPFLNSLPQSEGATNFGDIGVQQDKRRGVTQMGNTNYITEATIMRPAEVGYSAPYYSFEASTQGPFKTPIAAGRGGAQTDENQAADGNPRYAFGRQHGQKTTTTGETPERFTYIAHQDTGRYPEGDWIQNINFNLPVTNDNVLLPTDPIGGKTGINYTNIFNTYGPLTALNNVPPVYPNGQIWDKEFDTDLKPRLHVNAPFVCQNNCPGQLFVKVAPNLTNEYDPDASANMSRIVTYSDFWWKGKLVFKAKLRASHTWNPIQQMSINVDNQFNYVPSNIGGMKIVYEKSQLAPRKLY

B1: Fab of MAb14 (Fab 14) (Fab, V domains shown)
VH: AVHLQGTELVKPGASAGVKLSCKASGYTFTNYDMNWVRQRPEQGLEWIGWIFPGDGSTRYNEKFKGKATLTTDKSSSTAYQLNRLTSEDSAVYFCARRGSHGSYSFAYWGQGTLVTVSG
VL: DIVMTQSHKFMSTSVGDRVSITCKASQDVNTALAWYQQIPGQSPKLLIYSASNRYTGVPDRFTASGSGTDFTFTISSVQAEDLALYYCQQHYTTPWTFGGGTKLEIK
  stoichiometry N: ~60 Fab 14 molecules per capsid
